Assay results taken from patent US20100093623A1, “COMPOSITIONS AND METHODS FOR […]-LIKE RECEPTOR ACTIVITY AND USES THEREOF” (Burnham Institute for Medical Research, priority 2008, published 2010).

Target: T1, (His)6-NLRP1 (NLR family, pyrin domain-containing 1), purified recombinant full-length protein from Sf21 cells (human), Q9C000
T1 chain: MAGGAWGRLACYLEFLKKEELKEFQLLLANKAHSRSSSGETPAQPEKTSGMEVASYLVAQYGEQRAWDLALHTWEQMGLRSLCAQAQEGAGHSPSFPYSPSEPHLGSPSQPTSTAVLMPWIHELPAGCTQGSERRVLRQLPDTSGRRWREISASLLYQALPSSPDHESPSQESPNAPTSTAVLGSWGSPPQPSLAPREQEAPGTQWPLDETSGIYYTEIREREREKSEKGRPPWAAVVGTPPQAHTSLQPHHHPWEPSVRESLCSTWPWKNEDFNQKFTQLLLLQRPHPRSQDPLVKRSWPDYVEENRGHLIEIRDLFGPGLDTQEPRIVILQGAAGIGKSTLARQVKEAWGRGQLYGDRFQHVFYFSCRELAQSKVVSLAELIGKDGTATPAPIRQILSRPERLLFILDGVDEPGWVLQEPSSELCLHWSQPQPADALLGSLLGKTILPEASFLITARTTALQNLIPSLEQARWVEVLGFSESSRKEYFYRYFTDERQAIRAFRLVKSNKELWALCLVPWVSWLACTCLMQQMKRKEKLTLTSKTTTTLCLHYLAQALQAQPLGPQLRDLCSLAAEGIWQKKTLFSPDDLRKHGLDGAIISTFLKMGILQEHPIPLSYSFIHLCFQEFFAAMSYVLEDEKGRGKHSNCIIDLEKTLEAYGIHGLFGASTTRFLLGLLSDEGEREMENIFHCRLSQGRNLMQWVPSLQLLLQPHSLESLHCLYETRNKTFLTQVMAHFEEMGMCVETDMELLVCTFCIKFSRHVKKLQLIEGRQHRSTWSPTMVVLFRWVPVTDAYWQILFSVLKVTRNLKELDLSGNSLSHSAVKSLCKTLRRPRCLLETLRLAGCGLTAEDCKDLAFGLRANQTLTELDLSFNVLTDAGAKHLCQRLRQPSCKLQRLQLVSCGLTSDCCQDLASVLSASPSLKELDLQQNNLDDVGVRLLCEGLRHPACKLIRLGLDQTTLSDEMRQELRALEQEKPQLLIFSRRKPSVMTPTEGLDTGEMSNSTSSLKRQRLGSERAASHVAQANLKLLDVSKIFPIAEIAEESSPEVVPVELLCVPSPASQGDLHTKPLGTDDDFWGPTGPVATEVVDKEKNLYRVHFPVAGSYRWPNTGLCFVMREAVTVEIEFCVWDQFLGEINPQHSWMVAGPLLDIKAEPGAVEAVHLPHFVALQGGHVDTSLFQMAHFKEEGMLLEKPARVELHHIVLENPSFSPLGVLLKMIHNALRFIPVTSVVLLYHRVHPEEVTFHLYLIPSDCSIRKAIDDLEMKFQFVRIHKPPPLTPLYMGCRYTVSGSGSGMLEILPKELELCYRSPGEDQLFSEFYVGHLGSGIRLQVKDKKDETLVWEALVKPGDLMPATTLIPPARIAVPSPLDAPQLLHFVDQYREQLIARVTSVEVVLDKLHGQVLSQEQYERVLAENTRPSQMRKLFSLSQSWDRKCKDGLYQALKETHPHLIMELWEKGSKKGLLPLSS
Test: cell-based or functional assay

B1: Bcl-2 Loop peptide 71-90 (synthetic 20'mer) (peptide)
peptide: PLQTPAAPGAAAGPALSPVP
modifications: not checked
  IC50 (concentration to inhibit NLRP1-induced Caspase-1 activity by 50%): 9.92 nM
